assay: yeast display, Sf9 membrane polyspecificity reagent, FACS + sequencing; frameworks hold sequencing errors
Method in brief: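 In a synthetic yeast display library (Saccharomyces cerevisiae BJ5465), nanobody expression was induced with galactose for 36–48 hours. FACS gates were set low and high (top ~1%) using anti-HA fluorescence for expression and streptavidin fluorescence for binding of the Sf9 membrane reagent. Each polyreactivity label is drawn from the gate of origin.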

| Sequence | polyreactivity (PSR sort gate) |
| --- | --- |
| QVQLVESGGGLVQAGGSLRLSCAASGSTFILYAMGWYRQAPGKERELVAAITSRGGSTYYADSVKGRFTISRDNAKNTVYLQMNSLKPEDTAVYYCAADNGYIGPKPYFLAYPVGYDSWGQGTQVTVSS | low polyreactivity |
| QVQLVESGGGLVQAGGSLRLSCAASGSTFINYAMGWYRQAPGKERELVAVITSDDGSTYYADSVKGRFTISRDNAKNTVYLQMNSLKPEDTAVYYCAADYYDQRYRPGPWYDYWGQGTQVTVSS | low polyreactivity |
| QVQLVESGGGLVQAGGSLRLSCAASGSTFIPNAMGWYSQAPGKERELVAAISTGGSTNYADSVKGRFTISRDNAKNTVYLQMNSLKPEDTAVYYCNARRGYYNPGRRFYYWGQGTQVTVSS | low polyreactivity |
| QVQLVESGGGLVQAGGSLRLSCAASGSTFIRNAMGWYRQAPGKERELVAAITTDGSTDYADSVKGRFTISRDNAKNTVYLQMNSLKPEDTAVDYCNAEYRLDALSYDYLGQGTQVTVSS | low polyreactivity |
| QVQLVESGGGLVQAGGSLRLSCAASGSTFIRNTMGWYRQAPGKERELLAAISRSGVRTYYADSVKGRFTISRDNAKNTVYLQINSLKPEDTAVSYCAAVSSLSYSFPYDYWGQGTQVTVST | high polyreactivity |
| QVQLVESGGGLVQAGGSLRLSCAASGSTFIRYAMGWYRQAPGKERELVAAIRRTGASTYYADSVKGRFTISRDNAKNTVYLQMNSLKPEDTAVYYCAARYSIWSWNGLDYWGQGTQVTVSS | high polyreactivity |
| QVQLVESGGGLVQAGGSLRLSCAASGSTFISNTIGWYRQAPGKERELVAAISSGGDTSYADSVKGRFTISRDNAKNTVYLQMNILKPEDTAVYYCNVDTSATSYSSEYDYWGQGTQVTVSS | low polyreactivity |
| QVQLVESGGGLVQAGGSLRLSCAASGSTFISYAMGWYRPAPGKERELVAAISRNGGSTDYADSVKGRFTISRDNAKNSVYLQMNSLKPEHTAVYYCAAEYDTWWGGYDYWGQGTQVTVSS | high polyreactivity |
| QVQLVESGGGLVQAGGSLRLSCAASGSTFITNAMGWYRQAPGKERELVAAISSSGGSTYYADSVKGRFTISRDNAKNTVYLQMNSLKPEDTAVYYCNAVPYVPRFDYWGQGTQVTVSS | low polyreactivity |
| QVQLVESGGGLVQAGGSLRLSCAASGSTFITNIMGWYRQAPGKERELVAAISYIDGTTYYADSVKGRFTISRDNAKNTVYLQMNSLKPEDTAVYYCAAYPYLYPLRFEEYDHWGQGTQVTVSS | low polyreactivity |
| QVQLVESGGGLVQAGGSLRLSCAASGSTFITNSMGWYRQAPGKERELVAAITYSTGGTYYADSVKGRFTISRDNAKNTVYLQMNSLKPEDTAVYYCAALLYFFLYDYWGQGTQVSVSS | low polyreactivity |
| QVQLVESGGGLVQAGGSLRLSCAASGSTFITYAMGWSRQAPGKERELVAAISDSGGDTYYADSVKGRFTISRDYAKNTVYLQMISLNPEDTAVFYCAAEDDRYVYGDMNYWGQGTQVTVSS | low polyreactivity |
| QVQLVESGGGLVQAGGSLRLSCAASGSTFITYAMGWYRQAPGKERELVAAIRWSGGGTYYADSVKGRFTISRDTAKNTVYLQMNSLKPEDTAVYYCAADHFNYTTGRDYWGQGTQVTVSS | low polyreactivity |
| QVQLVESGGGLVQAGGSLRLSCAASGSTFIVYGMGWYRQAPGKEREFVAAITTRSGSTYYADSVKGRFTISRDNAKNTVYLQMNSLKPEDTAVYYCAAVPGTPRHDYWGQGTQVTVSS | high polyreactivity |
| QVQLVESGGGLVQAGGSLRLSCAASGSTFIYYAMGWYRQAPGKERELVAAISGSGASTYYADSVKGRFTISRDNAKNTVYLQMNSLKPEDTAVYYCAARSYGITDYGMYSWGQGTQVTVSS | high polyreactivity |
| QVQLVESGGGLVQAGGSLRLSCAASGSTFIYYAMGWYRQAPGKERELVAAISKRGGNTYYADSVKGRFTISRDNAKNTVYLQMNSLKPEDTAVYYCAARVYGTSRRYYSWGQGTQVTVSS | high polyreactivity |

| Sequence | polyreactivity (PSR sort gate) |
| --- | --- |
| QVQLVESGGGLVQAGGSLRLSCAASGSTFIYYARGWYRQAPGKERELVASISRSGGSPYYADSVKGRFTISRDNAKNTVYLQMNSLKPEATAVYDCARAYRSSFNYWGQGTQVTVSS | high polyreactivity |
| QVQLVESGGGLVQAGGSLRLSCAASGSTFKDNAMGWYIQAPGKERELVASITGRGGSTYYADSVKGRFTISRDNAKNTVYLHMNSLKPEDTAVYYCAARAYYGVYKSPYDYWGQGTQVTVSS | high polyreactivity |
| QVQLVESGGGLVQAGGSLRLSCAASGSTFKFYAMGWYRQAPGKERELVAAISGSSGSTYYADSVKGRFTISRDNAKNTVYLQMNSLKPEDTAVYYCNTQYSRYYTRYSAYDYWGQGTQVTVSS | low polyreactivity |
| QVQLVESGGGLVQAGGSLRLSCAASGSTFKHYAMGWYRQAPGKERELVAAISSGGSTKYADSVKGRFTISRDNAKNTVYLQMNSLKPEDTAVYYCAARSFFKMYYWGQGTQVTVSS | low polyreactivity |
| QVQLVESGGGLVQAGGSLRLSCAASGSTFKIYAMAWYRQAPGKERELVAAITGSGGSTYYADSVKGRFTISRDNAKNTVYLQMNSLKPEDTAVYYCAVDVYYYVATEFYEYDYWGQGTQVTVSS | high polyreactivity |
| QVQLVESGGGLVQAGGSLRLSCAASGSTFKIYAMGWYRQAPGKERELVAAITRSGGSTYYADSVKGRFTISRDNAKNTVYLQMNSLKPEDTAVYYCAASRFTSYGIDYDYWGQGTQVTVSS | high polyreactivity |
| QVQLVESGGGLVQAGGSLRLSCAASGSTFKPYAMGWYRQAPGKERELVAAITWTGGSTYYADSVKGRFTISRDNAKNTVYLEMNSLKPDDTAVYYCNAYLRWYITLLRYLAGGDYWGQGTQVTVSS | high polyreactivity |
| QVQLVESGGGLVQAGGSLRLSCAASGSTFKPYTMGWYRQAPGKERELVAGISSVDSTDYADSVKGRFTISRDNAKNTVYLQMNSLKPEDTAVYYCNKRKWPTFTYAMNYWGQGTQVSVSS | low polyreactivity |
| QVQLVESGGGLVQAGGSLRLSCAASGSTFKQYAMGLYRQAPGTERELVAVITWRGGRTYYADSVKGRFTISRDYAKNTVYLQMNSLKPEDTAVYYCAADYFSFIPGYDYWGQGTQVTVSS | high polyreactivity |
| QVQLVESGGGLVQAGGSLRLSCAASGSTFKQYAMGWYRQAPGKERELVAAISRSGSRTYYADSVKGRFTISRDNAKNTVYLQMNSLIPEDTAVYYCAAERRSTAGWLYDYWGQGTQVTVSS | high polyreactivity |
| QVQLVESGGGLVQAGGSLRLSCAASGSTFKRNAMGWYRQAPGIERELVAAISYSGGSTYYADSMKGRFTISRDNAKNTVYLQMNSLKPEDTAVYYCWGPGTQVTVSS | low polyreactivity |
| QVQLVESGGGLVQAGGSLRLSCAASGSTFKRYAMGWYRQAPGKEREFVAGISSRGSRTYYADSVKGRFTISRDNAKNTVYLQMNSLKPEDTAGYYCAVSGNHVSPPYGYWGQGTQVTVSS | high polyreactivity |
| QVQLVESGGGLVQAGGSLRLSCAASGSTFKRYAMGWYRQPPGKERELVASISSGGSTNYADSVKGRFTISRDNAKNSVYLQMNSLKPEDTAVYYCAAGYHVSTRGLIGHFDYWGQGTQVTVSS | high polyreactivity |
| QVQLVESGGGLVQAGGSLRLSCAASGSTFKRYVMGWYRQAPGKERELVAAISSRGGSTYYADSVKGRFTISRDNAKNTVYLQMNSLKPEDTAVYYCASANVRAEDYWGQGTQVTVSS | high polyreactivity |
| QVQLVESGGGLVQAGGSLRLSCAASGSTFKVNDMGWYRQAPGKERELVAAIDKSGGTTYYADSVKGRFTISRDNAKNTVYLQMNSLKPEDTAVYYCAADVIYEMDYWGQGTQVTVSS | low polyreactivity |
| QVQLVESGGGLVQAGGSLRLSCAASGSTFKWTAMGWYRPAPGKERELVAAITGSGTGTYYADSVKGRFTISRDNAKNTVYLQMNSLKPEDTAVYYCAAYVYGYKYYYWGQGTQVTVSS | high polyreactivity |

Source: the nanobody polyreactivity screen of Harvey et al. (2022)
